Assay: soluble on expression in E. coli; label from the status in PepcDB or PDB records

Sequence	soluble on expression in E. coli
MRGSHHHHHHGSDLGKKLLEAARAGQDDEVRILMANGADVNAEDTYGDTPLHLAARVGHLEIVEVLLKNGADVNALDFSGSTPLHLAAKRGHLEIVEVLLKYGADVNADDTIGSTPLHLAADTGHLEIVEVLLKYGADVNAQDKFGKTAFDISIDNGNEDLAEILQ	soluble
MRGSHHHHHHGSMQYALLFPGQGSQCIGMGKSFYEGHTLAKELFERASNALKVDMKKTLFEENELLKESAYTQPAIYLVSYIAYQLLNKQANGGLKPVFALGHSLGEVSAVSLSGALDFEKALKLTHQRGKMMQEACANKDASMMVVLGVSEESLLSLCQRTKNVWCANFNGGMQVVLAGVKDDLKALEPTLKEMGAKRVVFLEMSVASHCPFLEPMIFKFQELLEKSLKDKFHFEIISNATNEAYHNKAKAVELLSLQLTQPVRYQDCVKSNNDRVDIFFELGCGSVLKGLNKRLSNKPTISVGDNKGLDEAIEFLEEYV	soluble
MRGSHHHHHHMSDEEHTFETADAGSSATYPMQCSALRKNGFVVIKSRPCKIVDMSTSKTGKHGHAKVHLVAIDIFTGKKLEDLSPSTHNMEVPVVKRNEYQLLDIDDGFLSLMNMDGDTKDDVKAPEGELGDSLQTAFDEGKDLMVTIISAMGEEAAISFKEAARTD	soluble
MRGSHHHHHHTDPALRAALKATIYKATVNVADLDRNQFLDASLTLARHPSETQERMMLRLLAWLKYADERLQFTRGLCADDEPEAWLRNDHLGIDLWIELGLPDERRIKKACTQAAEVALFTYNSRAAQIWWQQNQSKCVQFANLSVWYLDDEQLAKVSAFADRTMTLQATIQDGVIWLSDDKNNLEVNLTAWQQPSGLCGR	soluble
MRGSHHHHHHTDPALRAARLFTLSESKYYLMALDAGTGSIRAVIFDLEGNQIAVGQAEWRHLAVPDVPGSMEFDLNKNWQLACECMRQALHNAGIAPEYIAAVSACSMREGIVLYNNEGAPIWACANVDARAAREVSELKELHNNTFENEVYRATGQTLALSAIPRLLWLAHHRSDIYRQASTITMISDWLAYMLSGELAVDPSNAGTTGLLDLTTRDWKPALLDMAGLRADILSPVKETGTLLGVVSSQAAELCGLKAGTPVVVGGGDVQLGCLGLGVVRPAQTAVLGGTFWQQVVNLAAPVTDPEMNVRVNPHVIPGMVQAESISFFTGLTMRWFRDAFCAEEKLIAERLGIDTYTLLEEMASRVPPGSWGVMPIFSDRMRFKTWYHAAPSFINLSIDPDKCNKATLFRALEENAAIVSACNLQQIADFSNIHPSSLVFAGGGSKGKLWSQILADVSGLPVNIPVVKEATALGCAIAAGVGAGIFSSMAETGERLVRWERTHTPDPEKHELYQDSRDKWQAVYQDQLGLVDHGLTTSLWKAPGLGLCGR	soluble
MRGSHHHHHHTDPALRALVSSNVTMQFGSKPLFENISVKFGGGNRYGLIGANGSGKSTFMKILGGDLEPTLGNVSLDPNERIGKLRQDQFAFEEFTVLDTVIMGHKELWEVKQERDRIYALPEMSEEDGYKVADLEVKYGEMDGYSAEARAGELLLGVGIPVEQHYGPMSEVAPGWKLRVLLAQALFADPDILLLDEPTNNLDIDTIRWLEQVLNERDSTMIIISHDRHFLNMVCTHMADLDYGELRVYPGNYDEYMTAATQARERLLADNAKKKAQIAELQSFVSRFSANASKSRQATSRARQIDKIKLEEVKASSRQNPFIRFEQDKKLFRNALEVEGLTKGFDNGPLFKNLNLLLEVGEKLAVLGTNGVGKSTLLKTLVGDLQPDSGTVKWSENARIGYYAQDHEYEFENDLTVFEWMSQWKQEGDDEQAVRSILGRLLFSQDDIKKPAKVLSGGEKGRMLFGKLMMQKPNILIMDEPTNHLDMESIESLNMALELYQGTLIFVSHDREFVSSLATRILEITPERVIDFSGNYEDYLRSKGIEGLCGR	soluble
MRHLRFENLTEEQLKRLAKILTENLKGGEVVILSGNLGAGKTTFVKGMIRAIGLDEKMVKSPTFTLMNVYPGLKTIYHLDLYRLQDTDFLSLDVEDILEDEDGIMVVEWGDLFDGFWPEDSIKVKIEIADESHRNVEILIPEEVNFLVEKIERYRKELQNT	soluble
MRIDTVNVLLEALPYIKEFYGKTFVIKFGGSAMKQENAKKAFIQDIILLKYTGIKPIIVHGGGPAISQMMKDLGIEPVFKNGHRVTDEKTMEIVEMVLVGKINKEIVMNLNLHGGRAVGICGKDSKLIVAEKETKHGDIGYVGKVKKVNPEILHALIENDYIPVIAPVGIGEDGHSYNINADTAAAEIAKSLMAEKLILLTDVDGVLKDGKLISTLTPDEAEELIRDGTVTGGMIPKVECAVSAVRGGVGAVHIINGGLEHAILLEIFSRKGIGTMIKELEG	soluble
MRIEDKLYLNRYRTDEENPHLKIKDESICAEKCSDRPCVSCCPADVYEWTESGMEVKFEGCLECGTCRIVCPFGNIEWNYPRGNYGVLYKFG	soluble
MRIGIVCPYSFDAPGGVQAHVLDLAEKFISQGHHVEVLGPASESTQLPDFVTRGGASLPIPYNGSVARLSFGPSTFIRARDFINRGQFDVLHIHEPNSPSFSMAALKVARGPIVATYHASSNRSLALKFALPFLRGQLEKIRGGIAVSEMARRWQVEMLGGDPILIPNGVETSQFELDKKPLWSGRIPEIVFLGRLDEHRKGLDILLRAVDRLDHEVRVTVIGGGTHPPAPRIDFVGRVSDEEKAEILGRADIYVAPNRGGESFGIVLVEAMAAGCVVVASDLEAFSAVCDAQSSQPSGILFRNGDADDLASTLRNVIENPKFGQELVTSGTQRAKEFDWDNVSKEIMRVYETVCDGTTVTAA	not soluble
MRILNQDNNIAVRNVLLMLTMEEAAELKDDLERLLSKKALNDHSHINDLEYEHELTISLYDENNIEEFDERIKKLIIQDE	not soluble
MRILVTNDDGIYSPGLWALAEAASQFGEVFVAAPDTEQSAAGHAITIAHPVRAYPHPSPLHAPHFPAYRVRGTPADCVALGLHLFGPVDLVLSGVNLGSNLGHEIWHSGTVAAAKQGYLFGLSAAAFSVPLNGEVPDFAGLRPWLLRTLETLLRLERPFLVNVNLPLRPKGFLWTRQSVRAYEGVVIPGEDPMGRPFYWFAPRPLKEAEEGTDRWAVAQGFVSATPLRLDLTDETRLQPTLAHD	soluble
MRISLPVAEAAAAGGRAGKHGKAITFLTPDDTAVYFDLKQVKIVDGHLPTHVFSLNCLRRYARMDSRNMMLHGANLDNSHLDVKVNFLFENFKHFSVFLKLTKSSK	soluble
MRKEAIYHRPADNFAYAYDSETLHLRLRTKKDDIDRVELLHGDPYDWQNGAWQFQMMPMRKTGSDELFDYWFAEVKPPYRRLRYGFVLYSGEEKLVYTEKGFYFEVPTDDTAYYFCFPFLHRVDLFEAPDWVKDTVWYQIFPERFANGNPSISPEGSRPWGSEDPTPTSFFGGDLQGIIDHLDYLVDLGITGIYLTPIFRSPSNHKYDTADYFEVDPHFGDKETLKTLIDRCHEKGIRVMLDAVFNHCGYEFAPFQDVWKNGESSKYKDWFHIHEFPLQTEPRPNYDTFAFVPQMPKLNTANPEVKRYLLDVATYWIREFDIDGWRLDVANEIDHEFWREFRQEVKALKPDVYILGQIWHDAMPWLRGDQFDAVMNYPFTDGVLRFFAKEEISARQFANQMMHVLHSYPNNVNEAAFNLLGSHDTSRILTVCGGDIRKVKLLFLFQLTFTGSPCIYYGDEIGMTGGNDPECRKCMVWDPMQQNKELHQHVKQLIALRKQYRSLRRGEISFLHADDEMNYLIYKKTDGDETVLVIINRSDQKADIPIPLDARGTWLVNLLTGERFAAEAETLCTSLPPYGFVLYAIEHW	soluble
MRKFLSKTHHHTNPLWRVYRLVKFSKVFKNVIIIEFSKFIPSMVLKRHIYKQLLNINIGNQSSIAYKVMLDIFYPELITIGSNSVIGYNVTILTHEALVDEFRYGPVTIGSNTLIGANATILPGITIGDNVKVAAGTVVSKDIPDNGFAYGNPMYIKMIRR	not soluble
MRKLFLLAIVLCVWSVVADAQESERRYIEVTGSSEIEVVPDEIHLLIQIKEYWKEEFVPKSKPEDYKTKVPLEWIEKDLRRVLSRAGISDEAIRVQEIGDYWRQKGKEFLIGKQLDIRFTDFEKINAVIKKIDTKGIESMRIGELKHKDLPNYRKQGKIEALKAAREKASYLVEAMGQKLGEVIRIVEPASSYVSPYSLYQAQSNVSMGTAATEQYRVITLRYEMTARFAIELEHHHHHH	soluble
MRKLKMMLFGASLIMVAGCSSKENALCHPQPKPPAPPAWAMMPPSNSLQLLDETFSVSGTESSETRQHLEHHHHHH	not soluble
MRKMNLIVAMDAEGGIGKNGVLPWRIKKDMQYFASVTKNVSDQSKRNAVLMGRKCWESIPVTRRPLAGRLNIVLSRQLPAQKSDDYIVVNSLEAAMKLLSEPPFVDSIETIWNIGGAEIYDLALRENLVDEIHLTRIFKNFEADVHLKSLDFSKMEKVQNAEVSSENSEIFEENGLKFEFCKWKVVENH	not soluble
MRKNILIFSLIAFSLTIHCSEIRVQRSLEESITKDYDQDGVYSSYEKALRRTQESVYVTLPEKRGYWYTMLDRIKAEEKELIPDEKVRMRKR	not soluble
MRKTKIVCTIGPASESEEMIEKLINAGMNVARLNFSHGSHEEHKGRIDTIRKVAKRLDKIVAILLDTKGPEIRTHNMKDGIIELERGNEVIVSMNEVEGTPEKFSVTYENLINDVQVGSYILLDDGLIELQVKDIDHAKKEVKCDILNSGELKNKKGVNLPGVRVSLPGITEKDAEDIRFGIKENVDFIAASFVRRPSDVLEIREILEEQKANISVFPKIENQEGIDNIAEILEVSDGLMVARGDMGVEIPPEKVPMVQKDLIRQCNKLGKPVITATQMLDSMQRNPRATRAEASDVANAIYDGTDAVMLSGETAAGLYPEEAVKTMRNIAVSAEAAQDYKKLLSDRTKLVETSLVNAIGISVAHTALNLNVKAIVAATESGSTARTISKYRPHSDIIAVTPSEETARQCSIVWGVQPVVKKGRKSTDALLNNAVATAVETGRVSNGDLIIITAGVPTGETGTTNMMKIHLVGDEIANGQGIGRGSVVGTTLVAETVKDLEGKDLSDKVIVTNSIDETFVPYVEKALGLITEENGITSPSAIVGLEKGIPTVVGVEKAVKNISNNMLVTIDAAQGKIFEGYANVL	not soluble
MRKTLIALMFAAALPTVAMAMPDGGPRHDGPHHRGDAPFHQLDLSRDQRQQIGKLMGEQMQQRRDITERYLSKLPATDQKAMKDELQANRDKTDSAVRKLLTADQQKKFDELQKERAAKKAEWQEFQAWKAEKGAKAQLEHHHHHH	soluble
MRKVKTDNSDLIEYVNTVKELKNHIPIEEYRNEYRKLRSDDIPLVKAQKFKSAHTEVRRLEKKRESLIEYFIDELNPISSSKANTSARSTGNLDLFNERVLYRKAISEKSDEEIVALVIKQRTEAAVEFQRSIEQSLEQLSRISSEFEPSNQKRRKMSL	soluble
MRKWRIEDSEELYNITGWGTSYFSINDAGHVVVTPRRDGVTVDLKELVDELQLRDVASPMLLRFPDILDNRIEKMSSCFKQAAEEYGYKAENFIIYPIKVNQMRPVVEEIISHGKKFNLGLEAGSKPELHAVIAVNTDSDSLIVCNGYKDESYIELALLAQKMGKRIFLVVEKMNELKLIAKMAKQLNVQPNIGIRIKLASSGSGKWEESGGDASKFGLTSSELLEALDFMESKGLKDCLKLIHFHIGSQVTKIRRIKTALREASQFYVQLHSMGFNVEFVDIGGGLGVDYDGTRSSNSEGSVNYSIQEYVNDSISTLVDVSDKNGIPHPNIITESGRALTAHHSVLIFEVLETATLPEWDDEEEIAPDAHELVQELYSIWDSLNQNKMLEAWHDAQQIREEALDLFSHGIVDLKTRAQIERLYWSITREINQIAGGLKHAPDEFRGLSKLLADKYFCNFSLFQSLPDSWAIDQIFPIMPIQRLDEKPERSATLQDITCDSDGKIANFISTRNVAHYLPVHSLKKTEPYYLAVFLVGAYQEILGDMHNLFGDTNAVHVSVNEKGYNIEQIIDGETVAEVLDYVQYNPKKLVRTLETWVTKSVKEGKISLEEGKEFLSNYRSGLYGYTYLE	not soluble

— the DeepSol protein solubility set
